Data published in article PMC5615076, “Prolonged seizure activity causes caspase dependent cleavage and dysfunction of G-protein activated inwardly rectifying potassium channels” (Scientific Reports, 2017).

Target: T1, Gβ1γ2 tagged with yellow fluorescent proteins (YFP-Gβ1 and YFP-Gγ2) (UniProt P62873 1-340; P59768 1-71)
T1 construct: G protein subunit beta-1 (Gβ1), from plasmid pcDNA3.1-YFP-G-protein Gβ1 (gift of N. Gautam); G protein subunit gamma-2 (Gγ2), from plasmid pcDNA3.1-YFP-G-protein-Gγ2 (gift of N. Gautam); Both chains co-expressed and precipitated together with anti-GFP antibodies; also called Gβγ; source: HEK293T, transfected (pcDNA3.1-YFP-G-protein Gβ1 and pcDNA3.1-YFP-G-protein-Gγ2), in lysate
Assay: co-IP; HEK293T cells co-transfected with YFP-Gβ1, YFP-Gγ2 and GIRK2A WT or Y353X (doubled plasmid for Y353X); IP 24 h after transfection with mouse anti-GFP antibodies and Protein A/G agarose; blot with anti-GIRK2 N-terminal antibodies; band ratio GIRK2A/YFP-Gβ1 normalised to GIRK2A WT
Conditions: partners not purified

B1: GIRK2A-Y353X (domain or fragment)
chain: MTMAKLTESMTNVLEGDSMDQDVESPVAIHQPKLPKQARDDLPRHISRDRTKRKIQRYVRKDGKCNVHHGNVRETYRYLTDIFTTLVDLKWRFNLLIFVMVYTVTWLFFGMIWWLIAYIRGDMDHIEDPSWTPCVTNLNGFVSAFLFSIETETTIGYGYRVITDKCPEGIILLLIQSVLGSIVNAFMVGCMFVKISQPKKRAETLVFSTHAVISMRDGKLCLMFRVGDLRNSHIVEASIRAKLIKSKQTSEGEFIPLNQSDINVGYYTGDDRLFLVSPLIISHEINQQSPFWEISKAQLPKEELEIVVILEGIVEATGMTCQARSSYITSEILWGYRFTPVLTMEDGFYEVD
notes: GIRK2A (Kir3.2, cDNA NM_010606.2) with Y353 mutated to a stop codon, so the chain ends at D352 of the 349YEVD352 motif; mimics GIRK2A cleaved by caspase-3; Untagged; made by QuikChange mutagenesis of pcDNA3-GIRK2A; also called GIRK2-Y353X; truncated GIRK2A-Y353X; source: HEK293T, transfected (FuGENE6, pcDNA3-GIRK2A Y353X, doubled amount of plasmid), in lysate
  coimmunoprecipitation, % of wild-type GIRK2A: 50 % of wild-type GIRK2A
